Measurements: patent US20210261685A1 (Alector, published 2021)

What was measured:
[1] = molecular target: T1, human MerTK endogenously expressed on cells (SK-MEL-5 cells; human macrophages) (human, UniProt Q12866 21-999); assay: cell-based or functional assay
T1 sequence: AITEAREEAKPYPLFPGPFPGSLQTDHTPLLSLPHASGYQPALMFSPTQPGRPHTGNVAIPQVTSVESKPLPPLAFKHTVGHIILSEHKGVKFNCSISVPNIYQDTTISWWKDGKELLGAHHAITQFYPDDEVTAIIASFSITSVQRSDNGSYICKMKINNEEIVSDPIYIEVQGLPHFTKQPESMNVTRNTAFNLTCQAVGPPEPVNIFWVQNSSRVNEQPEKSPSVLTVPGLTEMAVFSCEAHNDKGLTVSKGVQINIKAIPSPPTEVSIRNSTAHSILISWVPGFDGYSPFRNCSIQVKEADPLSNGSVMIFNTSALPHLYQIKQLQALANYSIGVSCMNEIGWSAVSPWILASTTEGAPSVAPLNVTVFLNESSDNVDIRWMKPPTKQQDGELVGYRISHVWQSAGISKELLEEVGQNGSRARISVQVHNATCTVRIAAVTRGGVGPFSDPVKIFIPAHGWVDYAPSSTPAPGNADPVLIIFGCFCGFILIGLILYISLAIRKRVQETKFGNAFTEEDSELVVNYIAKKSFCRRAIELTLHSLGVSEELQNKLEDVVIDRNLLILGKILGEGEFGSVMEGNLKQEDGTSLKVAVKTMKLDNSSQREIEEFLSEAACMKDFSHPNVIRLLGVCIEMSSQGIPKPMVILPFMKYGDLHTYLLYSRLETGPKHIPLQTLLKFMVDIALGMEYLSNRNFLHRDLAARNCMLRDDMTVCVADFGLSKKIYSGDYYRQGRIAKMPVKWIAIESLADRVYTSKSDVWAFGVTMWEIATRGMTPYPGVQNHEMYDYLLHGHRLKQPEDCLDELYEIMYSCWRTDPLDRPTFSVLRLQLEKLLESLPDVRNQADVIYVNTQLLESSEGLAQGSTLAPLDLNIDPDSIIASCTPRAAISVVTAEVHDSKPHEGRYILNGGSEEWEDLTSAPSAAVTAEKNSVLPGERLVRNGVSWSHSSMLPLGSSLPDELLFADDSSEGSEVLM

[2] = molecular target: T2, Recombinant human MerTK human Fc Chimera protein (R&D systems, Cat #391-MR-100) (human, UniProt Q12866 26-499, limits assumed); assay: competition ELISA, His-ProS on captured MerTK-Fc
T2 construct: Bought; also called recombinant human MerTK protein; MerTK-Fc
T2 sequence: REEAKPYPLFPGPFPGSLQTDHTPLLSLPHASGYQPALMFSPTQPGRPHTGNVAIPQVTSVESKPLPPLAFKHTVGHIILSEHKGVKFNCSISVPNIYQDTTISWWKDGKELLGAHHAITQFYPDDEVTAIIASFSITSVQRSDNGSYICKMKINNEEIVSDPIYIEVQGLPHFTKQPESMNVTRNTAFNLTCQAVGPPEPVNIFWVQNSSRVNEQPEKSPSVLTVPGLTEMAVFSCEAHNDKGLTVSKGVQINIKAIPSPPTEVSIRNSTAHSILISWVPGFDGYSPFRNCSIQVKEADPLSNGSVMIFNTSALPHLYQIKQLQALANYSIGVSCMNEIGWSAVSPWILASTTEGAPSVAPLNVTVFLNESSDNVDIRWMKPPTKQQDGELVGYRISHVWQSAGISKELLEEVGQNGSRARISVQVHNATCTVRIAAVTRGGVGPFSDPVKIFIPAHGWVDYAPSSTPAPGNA
Experimental: Rabbit anti-human IgG polyclonal antibody (Jackson ImmunoResearch, Cat #309-005-008) was captured to a high-protein binding plate at 2 μg/ml 4° C. overnight. After washing with 0.05% Tween20 in PBS three times, 5% BSA in PBS was added for 1 hour. Recombinant human MerTK human Fc Chimera protein (R&D systems, Cat #391-MR-100) was added at 2 μg/ml for 1 hour and the plates were then washed. Anti-MerTK antibodies were titrated to final concentration range of between 66.6 nM to 4 pM and then 40 μl of serially diluted antibody and 40 μl of His tag-conjugated recombinant Gas6 protein (R&D systems, Cat #885-GSB-050) at 3 μg/ml or His tag-conjugated recombinant ProS protein (R&D systems, Cat #9489-PS-100) at 20 μg/ml. After a further incubation for 1 hour, plates were washed and incubated for 1 hour with HRP-conjugated anti-6×His tag antibody (Abcam, Cat #ab1187). Plates were then washed and an HRP substrate (TMB) was used to develop the plates. After sufficient color change was observed, the reaction was stopped by adding 50 μl 2N H₂SO₄ and the OD was measured using a spectrophotometer (BioTek).
From these experiments, IC50 values [nM] were determined using OD450 values obtained from the dose-response curves analyzed with Prism software. Table 14 and Table 15 show IC50 values determined for anti-MerTK antibody blocking of Gas6 ligand binding and ProS ligand binding to MerTK. […] Dashes indicate lack of significant blocking; “n.a.” indicates data not available.

[3] = molecular target: T3, cyno MerTK extracellular domain (ECD), recombinant (cynomolgus monkey, UniProt Q12866 21-505 (human entry)); assay: SPR, Carterra LSA
T3 construct: also called cynomolgus MerTK; not shown: polyHis tag or TEVS/Thrombin/murine IgG2a Fc tag
T3 chain: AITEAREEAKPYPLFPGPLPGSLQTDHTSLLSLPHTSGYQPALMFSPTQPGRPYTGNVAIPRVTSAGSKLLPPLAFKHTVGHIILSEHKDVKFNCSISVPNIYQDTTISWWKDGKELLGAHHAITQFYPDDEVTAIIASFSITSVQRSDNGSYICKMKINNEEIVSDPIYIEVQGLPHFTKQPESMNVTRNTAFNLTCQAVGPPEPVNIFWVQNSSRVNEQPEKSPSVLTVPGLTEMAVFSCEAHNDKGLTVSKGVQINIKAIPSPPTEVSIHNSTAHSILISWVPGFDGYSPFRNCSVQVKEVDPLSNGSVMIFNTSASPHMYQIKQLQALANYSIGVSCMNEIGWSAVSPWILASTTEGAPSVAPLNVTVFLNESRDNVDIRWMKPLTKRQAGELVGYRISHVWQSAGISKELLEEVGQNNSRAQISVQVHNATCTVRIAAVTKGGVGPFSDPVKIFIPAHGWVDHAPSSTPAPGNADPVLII

B1: MTK-09 (antibody, human IgG1, V domains shown)
VH: QVQLQQSGAELVRPGASVKISCKAFGYTFTNHHIKWVKQRPGQGLDWIGYIDPYNDYTTYNQNFKGKATLTVDKSSSTAYMELSSLTSEDSAVYYCARRAYDGYYVDWYFDVWGAGTTVTVSS
VL: DIVMTQSHKFMSTSVGDRVSITCKASQDVTTSVAWYHQKPGQSPELLIYSASYRYTGVPDRFTGSGSGTDFTFTISSVQAEDLAIYYCQQHYSTPLTFGSGTKLQLK
In the case of B1, the “Gas6-mediated pAKT activity, average IC50, human M2c macrophages” value [1] is reported as 1.67 nM, the IC50 [2] is reported as 7.84 nM and the binding result [3] is reported as “binds”.
